Reference: patent publication US20260167699A1 (Chugai, published 2026)

Columns and labels:
Test in all cases: SPR, relative to GpH7-A5/GpH7-B3/GpL16-k0 =100
FcγRIa = molecular target: T1, FcγRIa (human, UniProt P12314 16-292)
T1 construct: extracellular domain; also called 1a

FcγRIIb = molecular target: T2, FcγRIIb (human, UniProt P31994 43-217)
T2 construct: extracellular domain; also called 2b
T2 sequence: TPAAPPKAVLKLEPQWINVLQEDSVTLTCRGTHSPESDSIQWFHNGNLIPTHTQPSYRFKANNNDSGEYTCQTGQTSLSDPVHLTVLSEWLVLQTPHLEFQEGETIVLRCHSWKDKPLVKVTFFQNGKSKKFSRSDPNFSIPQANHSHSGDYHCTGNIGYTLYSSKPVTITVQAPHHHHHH

FcγRIIa(R) = molecular target: T3, FcγRIIa(R) (human, UniProt P12318 34-217)
T3 construct: extracellular domain; also called 2aR
T3 sequence: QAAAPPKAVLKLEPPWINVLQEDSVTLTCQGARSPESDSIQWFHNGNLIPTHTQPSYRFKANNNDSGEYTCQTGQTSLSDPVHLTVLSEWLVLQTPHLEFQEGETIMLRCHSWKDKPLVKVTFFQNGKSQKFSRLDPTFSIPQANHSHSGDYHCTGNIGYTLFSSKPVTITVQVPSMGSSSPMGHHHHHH

FcγRIIa(H) = molecular target: T4, FcγRIIa(H) (human, UniProt P12318 34-217)
T4 construct: extracellular domain; also called 2aH
T4 sequence: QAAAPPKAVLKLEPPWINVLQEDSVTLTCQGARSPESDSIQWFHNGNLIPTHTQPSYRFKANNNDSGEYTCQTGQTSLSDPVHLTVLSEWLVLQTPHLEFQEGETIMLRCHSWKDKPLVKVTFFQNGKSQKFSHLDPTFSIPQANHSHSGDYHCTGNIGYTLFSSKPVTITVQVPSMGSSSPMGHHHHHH

T1 sequence (P12314 other isoform, or with tags, fused parts or gaps): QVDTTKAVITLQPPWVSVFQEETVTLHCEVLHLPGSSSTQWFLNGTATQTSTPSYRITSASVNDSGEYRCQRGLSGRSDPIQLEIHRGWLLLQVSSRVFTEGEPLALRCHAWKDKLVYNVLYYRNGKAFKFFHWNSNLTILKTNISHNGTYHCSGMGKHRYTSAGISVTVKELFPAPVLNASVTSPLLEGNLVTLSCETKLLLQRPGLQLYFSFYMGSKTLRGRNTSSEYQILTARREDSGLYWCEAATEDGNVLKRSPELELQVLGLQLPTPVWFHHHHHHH

B1: GpH7-A5/GpH7-B3 variant A330_09D/GpL16-k0 (antibody, human IgG1, kappa)
heavy 1: not shown
heavy 2: not shown
light: DIVMTQSPLSLPVTPGEPASISCQASESLVHSNRNTYLHWYLQKPGQSPQLLIYKVSNRFSGVPDRFSGSGSGTDFTLKISRVEAEDVGVYYCSQNTHVPPTFGQGTKVEIERTVAAPSVFIFPPSDEQLKSGTASVVCLLNNFYPREAKVQWKVDNALQSGNSQESVTEQDSKDSTYSLSSTLTLSKADYEKHKVYACEVTHQGLSSPVTKSFNRGEC
notes: He Ab: heterodimerized IgG1, one H chain mutated
He/Con 1a (FcγRIa): 112%
He/Con 2b (FcγRIIb): 62.8%
He/Con 2aR (FcγRIIa(R)): 79.5%
He/Con 2aH (FcγRIIa(H)): 67.8%

B2: GpH7-A5/GpH7-B3 variant A330_20W/GpL16-k0 (antibody, human IgG1, kappa)
heavy 1: not shown
heavy 2: not shown
light: DIVMTQSPLSLPVTPGEPASISCQASESLVHSNRNTYLHWYLQKPGQSPQLLIYKVSNRFSGVPDRFSGSGSGTDFTLKISRVEAEDVGVYYCSQNTHVPPTFGQGTKVEIERTVAAPSVFIFPPSDEQLKSGTASVVCLLNNFYPREAKVQWKVDNALQSGNSQESVTEQDSKDSTYSLSSTLTLSKADYEKHKVYACEVTHQGLSSPVTKSFNRGEC
notes: as for B1
He/Con 1a (FcγRIa): 111%
He/Con 2b (FcγRIIb): 86%
He/Con 2aR (FcγRIIa(R)): 97.6%
He/Con 2aH (FcγRIIa(H)): 93.8%

B3: GpH7-A5/GpH7-B3 variant A330_16H/GpL16-k0 (antibody, human IgG1, kappa)
heavy 1: not shown
heavy 2: not shown
light: DIVMTQSPLSLPVTPGEPASISCQASESLVHSNRNTYLHWYLQKPGQSPQLLIYKVSNRFSGVPDRFSGSGSGTDFTLKISRVEAEDVGVYYCSQNTHVPPTFGQGTKVEIERTVAAPSVFIFPPSDEQLKSGTASVVCLLNNFYPREAKVQWKVDNALQSGNSQESVTEQDSKDSTYSLSSTLTLSKADYEKHKVYACEVTHQGLSSPVTKSFNRGEC
notes: as for B1
He/Con 1a (FcγRIa): 109%
He/Con 2b (FcγRIIb): 99%
He/Con 2aR (FcγRIIa(R)): 111%
He/Con 2aH (FcγRIIa(H)): 110%

B4: GpH7-A5/GpH7-B3 variant A330_19Q/GpL16-k0 (antibody, human IgG1, kappa)
heavy 1: not shown
heavy 2: not shown
light: DIVMTQSPLSLPVTPGEPASISCQASESLVHSNRNTYLHWYLQKPGQSPQLLIYKVSNRFSGVPDRFSGSGSGTDFTLKISRVEAEDVGVYYCSQNTHVPPTFGQGTKVEIERTVAAPSVFIFPPSDEQLKSGTASVVCLLNNFYPREAKVQWKVDNALQSGNSQESVTEQDSKDSTYSLSSTLTLSKADYEKHKVYACEVTHQGLSSPVTKSFNRGEC
notes: as for B1
He/Con 1a (FcγRIa): 109%
He/Con 2b (FcγRIIb): 103%
He/Con 2aR (FcγRIIa(R)): 117%
He/Con 2aH (FcγRIIa(H)): 110%

B5: GpH7-A5/GpH7-B3 variant A330_18N/GpL16-k0 (antibody, human IgG1, kappa)
heavy 1: not shown
heavy 2: not shown
light: DIVMTQSPLSLPVTPGEPASISCQASESLVHSNRNTYLHWYLQKPGQSPQLLIYKVSNRFSGVPDRFSGSGSGTDFTLKISRVEAEDVGVYYCSQNTHVPPTFGQGTKVEIERTVAAPSVFIFPPSDEQLKSGTASVVCLLNNFYPREAKVQWKVDNALQSGNSQESVTEQDSKDSTYSLSSTLTLSKADYEKHKVYACEVTHQGLSSPVTKSFNRGEC
notes: as for B1
He/Con 1a (FcγRIa): 110%
He/Con 2b (FcγRIIb): 71.9%
He/Con 2aR (FcγRIIa(R)): 91%
He/Con 2aH (FcγRIIa(H)): 88.3%

B6: GpH7-A5/GpH7-B3 variant A330_10E/GpL16-k0 (antibody, human IgG1, kappa)
heavy 1: not shown
heavy 2: not shown
light: DIVMTQSPLSLPVTPGEPASISCQASESLVHSNRNTYLHWYLQKPGQSPQLLIYKVSNRFSGVPDRFSGSGSGTDFTLKISRVEAEDVGVYYCSQNTHVPPTFGQGTKVEIERTVAAPSVFIFPPSDEQLKSGTASVVCLLNNFYPREAKVQWKVDNALQSGNSQESVTEQDSKDSTYSLSSTLTLSKADYEKHKVYACEVTHQGLSSPVTKSFNRGEC
notes: as for B1
He/Con 1a (FcγRIa): 111%
He/Con 2b (FcγRIIb): 79.2%
He/Con 2aR (FcγRIIa(R)): 97.2%
He/Con 2aH (FcγRIIa(H)): 87.7%

B7: GpH7-A5/GpH7-B3 variant A330_14T/GpL16-k0 (antibody, human IgG1, kappa)
heavy 1: not shown
heavy 2: not shown
light: DIVMTQSPLSLPVTPGEPASISCQASESLVHSNRNTYLHWYLQKPGQSPQLLIYKVSNRFSGVPDRFSGSGSGTDFTLKISRVEAEDVGVYYCSQNTHVPPTFGQGTKVEIERTVAAPSVFIFPPSDEQLKSGTASVVCLLNNFYPREAKVQWKVDNALQSGNSQESVTEQDSKDSTYSLSSTLTLSKADYEKHKVYACEVTHQGLSSPVTKSFNRGEC
notes: as for B1
He/Con 1a (FcγRIa): 108%
He/Con 2b (FcγRIIb): 87.9%
He/Con 2aR (FcγRIIa(R)): 107%
He/Con 2aH (FcγRIIa(H)): 102%
